{
  "source": "the nanobody polyreactivity screen of Harvey et al. (2022)",
  "data": [
    {"assay": "yeast display, Sf9 membrane polyspecificity reagent, FACS + sequencing; frameworks hold sequencing errors", "in_short": "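Polyreactivity labels are assigned by the sorting gate from which each nanobody was recovered. The gates were low and high (top ~1%), set on anti-HA fluorescence for expression and streptavidin fluorescence for reagent binding. Before sorting, galactose-induced (36–48 hours) yeast display cells were stained for 1 hour at 4 °C with 10% biotinylated, detergent-solubilized Sf9 membrane reagent.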", "values": [
      {"sequence": "QVQLVESGGGLVQAGGSLRLRCAASGFIFGYYAMGWYRQAPGKERELVAAITTSGGSTYYADSVKARFTISRDNAKNTVYLQMNSLKPEDTAVYYCNKPGNYVWRRSWDFDYWGQGTQVTVSS", "polyreactivity (PSR sort gate)": "high polyreactivity"},
      {"sequence": "QVQLVERGGGLVQAGGSHRLSCAASGRIFPGYAKGWYRQAPGKELELVAAISRIGGDTYYADSVKGRFTISRDNAKNTVYLQMNSLKPEDTPVYYCAARYGRHRVSWYATWRYGYWGQGTQVTVSS", "polyreactivity (PSR sort gate)": "low polyreactivity"},
      {"sequence": "QVQLVESGGGLVQAGGSLRLSCAASGSTFGLYAMGWYRQAPGKERELVAAIRWSGGRTYYADSVKGRFTISRDNAKNTVYLQMNSLKPEDTAVYYCAARSLRSKNDYWGQGTQVTVSS", "polyreactivity (PSR sort gate)": "high polyreactivity"},
      {"sequence": "QVQLVESGGGLVQAGGSLRLSCAASGRTFGAYAMGWYRQAPGKERELVAAISNGGRTYYADSVKGRFTISRDNAKNTVYLQMNSLKPEDTAVYYCNKVRSPWYDSWGQGTQVTVSS", "polyreactivity (PSR sort gate)": "high polyreactivity"},
      {"sequence": "QVQLVESGGGLVQAGGSLRLSCAASGRIFDENAMGWYRQAPGKERELVATISSSGVSTSYADSVKGRFTISRDNAKNTVYLQMNSLKPEDTAVYYCNAGYRRRYKFDYWGQGTQVTVSS", "polyreactivity (PSR sort gate)": "low polyreactivity"},
      {"sequence": "QVQLVESGGGLVQAGGSLRLSCAASGRIFSKYAMGWYRQAPGKERELVASIRWRGDRTYYADSVKGRFTISRDNAKNTVYLQMNSLKPEDTAVYYCAVETLWQGSEYWVQGTQVTVSS", "polyreactivity (PSR sort gate)": "low polyreactivity"},
      {"sequence": "QVQLVESGVGLVQAGGRLRLSCAASGLTLHRYTMGWYRQAPGKERELVAVITYGGGNTYYADSVKGRFTISRDNAKNTVYLQLNCLKPEDTAVYYCAARDPPFYWYDYWGQGTQVTVSS", "polyreactivity (PSR sort gate)": "low polyreactivity"},
      {"sequence": "QVQHVESGGGLVQAGGSLRLSSAASGNTINSNAMGWYRQSPGKEREFVAAISGSGSSTYYADSVKGRFTISRDYAKNTVYLQMNSLNPEDTAVYYCAARWGYFGSFDYWGQGTQVTVSS", "polyreactivity (PSR sort gate)": "high polyreactivity"},
      {"sequence": "QVQLVESGGGLVQAGGSLRLSCAASGRTFQYYAMGWYRQAPGKERELVARINRSGGSTYYADSVKGRFTISRDNAKNTVYLQMNSLKPEDTAVYYCAADYLSRSPAYEHYYWGQGTQVTVSS", "polyreactivity (PSR sort gate)": "high polyreactivity"},
      {"sequence": "QVQLVESGGGLVQAGGSLRISCAPSGIIFEYYALGCSRQAPGKEREVVAAIFSGGSTYYADSVKGRFTISRDNAKNTVYLLMNSLKAEDNAVYYCAAEYLAWGQGTQVTVSS", "polyreactivity (PSR sort gate)": "high polyreactivity"},
      {"sequence": "QVQLVESGGGLVQAGGSLRLSCAASGSILSSYAMGWYRQAPGKERELVAAISKSGTRTYYADSVKGRFTISRDNAKNTVYLQMNSLKPEDTAVYYCAVVYYGSIFVLEYDYWGQGTQVTVSS", "polyreactivity (PSR sort gate)": "high polyreactivity"},
      {"sequence": "QVQLVESGGGLVQAGGSLRLSCAASGRIFQYNPMGWYIQAPGKERELVADITWIGGSTYADSVKGRFTISRDTAKNTVYLQMNSLKPEDTAVYYCNARYIYRFDYWGQGSQVTVSS", "polyreactivity (PSR sort gate)": "low polyreactivity"},
      {"sequence": "QVQIVESGGGLVQAGGSLRLSCAASGSTFRRYVMGWYRQAPGKERELVAAISWSGTSTNYADSLKGRFTISRDNAKNTVYLHMNSLKPEDTAVYYCATQSLYYRWGLDYCGQGTQVTVSS", "polyreactivity (PSR sort gate)": "high polyreactivity"},
      {"sequence": "QVQLVESGGGLVQAGGSLRLSCAASGRIVARNAMRWYSQAPGKERELVGAITYSGGSTYYADSVKGRFTISRDNAKNTVYLPMISLKPEDTAVYYCAAETSKRGRRYYYWGQGTQVTVSS", "polyreactivity (PSR sort gate)": "high polyreactivity"},
      {"sequence": "QVQLVESGGGLVQAGGSLRLSCAASGRTFTGNTMGWYRQAPGKERELVAAISSSGGRTYYADSVKGRFTISRDNAKNTVYLQMNSLKQVDTAVYYCNATIWRTQYGYWGQGTQVTVSS", "polyreactivity (PSR sort gate)": "high polyreactivity"},
      {"sequence": "QVQLVESGGGLVQAGGSLRLSCAASGRIFRYNAMGWYRQAPGKERELVATIRWGGGGTYYADSVKGRFTISRDNAKNSVYLLMNSLKPEDTAVYYCNAKRYSPGYNYWGQGTQVTVSS", "polyreactivity (PSR sort gate)": "high polyreactivity"},
      {"sequence": "QVQLVESGGGLVQAGGSLRLSCAASGFIFVRYAMGWYRQAPGKERELVAAISKSGGRTYYADSVKGRFTISRDNAKNTVYLQMNSLKPEDTAVYYCAAYYYVGRVVSFDYWGQGTQVTVSS", "polyreactivity (PSR sort gate)": "high polyreactivity"},
      {"sequence": "QVQLVESGGGLVQAGGSLRLSCAASGRTFQWYTMGWYRQAPGKERELVAGISWRGGSTYYADSVKGRFTISRDNAKNTVYLQMNSLKPEDTAVYYCAALASRLTGRDYWGQGTQVTVSS", "polyreactivity (PSR sort gate)": "high polyreactivity"},
      {"sequence": "QVQLVESGGGLVQAGGSLRLSCAASGRTFHWYTLGWYRQAPGKEREFVAGINWSGARTYYADSVKGRFTISRDNAKNTVYLQMNSLKPEDTAVYYCNKRDRYRLYGYNYWGQGTQVTVSS", "polyreactivity (PSR sort gate)": "high polyreactivity"},
      {"sequence": "QVQLVESGGGLVQAGGSLRLSCAASGSIFGYNAMGWYRQAPGKEREFVAAITSGGSTYYADSVKGRFTISRDNAKNTVYLQMNSLKPEDTAVYYCRRRNVYSTRRYDYWGQGTQVTVSS", "polyreactivity (PSR sort gate)": "high polyreactivity"},
      {"sequence": "QVQLVESGGGLVQAGGSLRLSCAASGRIFPSYAMGWYRKAPGKERELVAAISDSDGSTYYADSVKGRFTISRDNAKNTVYLQMNSLKPEDTAVYYCAAEGSFPAYDYWGQGTQVTVSS", "polyreactivity (PSR sort gate)": "low polyreactivity"},
      {"sequence": "QDHLVESGGGLVQAGGSLRLSCAASGISFSVNAMGWSRQAPGKERELVASISSGGSTNYADSVTGRFTISRDNAKNTVYLQMNSLNPEDTAVSYCAAGYWNDFDWGQGTQVTVSS", "polyreactivity (PSR sort gate)": "low polyreactivity"},
      {"sequence": "QVQLVESGGGLVQAGGSLRISCAASGYIFRFNAMGCYRPAPGKERELVAVITSGARTYYADSVKGRFTISRDNAKNTVYLQMNSLKPEDNAVYYCNAGARRYLYDYWGQGTQVTVSS", "polyreactivity (PSR sort gate)": "low polyreactivity"},
      {"sequence": "QVQLVESGGGLVQAGGSLRLSCAASGITIFTYAMGWYRQAPGKERELVAAISGSGGSTYYADSVKGRFTISRDNAKNTVYLQMNSLKPEDTAVYSCAAEYTYGSPYDYWGQGTQVTVSS", "polyreactivity (PSR sort gate)": "low polyreactivity"},
      {"sequence": "QVQLVESGEGLVQAGGSLRLSCAASGRTFYANAMGWYRQAPGKERELVASITTSGGTYYADSVKGRFTISRDNAKNTVYLQMNSLKPEDTAVYYCAADVYRSIGYDYWGQGTQVTVSS", "polyreactivity (PSR sort gate)": "low polyreactivity"},
      {"sequence": "QVQLVESGGGLVQAGGSLRLSCAASGLIFKLNAMGWYRQAPGKARELVAAIRASTGSTYYADSVKGRFTISRDNAKNTVYLQMNSLKPEDTAVYYCAVRLRWYFFLMDYWGQGTQVTVSS", "polyreactivity (PSR sort gate)": "high polyreactivity"},
      {"sequence": "QVQLVESGGGLVQAGGSLRLSCAASGSTFWGYAMGWYRQAPGKERELVATINQSAGSTYYADSVKGRFTISRDYAKNTVYLQMNSLKPEDTAVYYCAAEARVQFSYDYWGQGTQVTVSS", "polyreactivity (PSR sort gate)": "low polyreactivity"},
      {"sequence": "QVQLVESGGGIVQAGCSLRFSCAASGGTFGYYTLGWYRQAPGKERQLVAAISSGGGTDYADSVKGRFTISRDNAKNTVSLQMNSLKAEDTAVYYCNAQWLEWHYVFLPSYTMDYWGLGTQVTVSS", "polyreactivity (PSR sort gate)": "low polyreactivity"},
      {"sequence": "QVQLVDSGGGLVQAGGSLRLSCAASGRTFDVYTMGWYRQAPGKERELVAAINGGGSTYYADSVKGRFTISRDNAKNTVYLQMNTLKPEDTAVYYCAAKLRAGRSSYYWGQGTQVTVSS", "polyreactivity (PSR sort gate)": "high polyreactivity"},
      {"sequence": "QVQLVESGGGLVQAGGSLRLSCAATGLTFKENVMGWYRQAPGKERELVAAISTGASTYYADSVNGRFTISRDNAKNTVYLQMNSLKPEDTAVYYCAKRVTPWYGYWGQGTQVTVSS", "polyreactivity (PSR sort gate)": "high polyreactivity"},
      {"sequence": "QVQLVESGGGLVQAGGSLRLSCAASGIIFDRYAMGWYRQAPGKEREFVAAISRRGGSTYYADSVKGRFTISRDNAKNTVYLQMNSLKPEDTAVYYCAKEIRYSSSVSESDYWGQGTQVTVSS", "polyreactivity (PSR sort gate)": "high polyreactivity"},
      {"sequence": "QVQLVESGGGLVQAGGSLRLSCAASGLTFNSYDMGWYRQAPGKERELVAAISSGGVLPNYADSVKGRFTISRDNAKNTVYLQMNSLNPEDTAVYYCNVYSWPYDYWGQGTQVTVSS", "polyreactivity (PSR sort gate)": "low polyreactivity"},
      {"sequence": "QVQLVESGGGLVQAGGSLRLSCAASGSTFKYYAMGWYRQAPGKEREFVAAITANGGRTYYADSVKGRFTISRDNAKNTVYLQMNSLKPEDTAVYYCAARTWYYYVYGYESWGQGTQVTVSS", "polyreactivity (PSR sort gate)": "high polyreactivity"},
      {"sequence": "QVQLVESGGGLVQAGGSLRLSCAASGSIFEPNAMGWYRQAPGKERELVAAISWNDGDTYYADSVKGRFTISRDNAKNTVYLQMNCLKPEDTAVYYCAAETGYAFDYWGQGTQVTVSS", "polyreactivity (PSR sort gate)": "low polyreactivity"},
      {"sequence": "QVQLVESGGGLVQAGGSLRLSCAASGNIFYKYDMGWYRQAPGKERELVATISSDANTKYADSLKGRFTISRDNAKNTVYLQMNSLKPEDTPVYYCNVKDPVVRGALRDPTEYDSWGQGTQVTVSS", "polyreactivity (PSR sort gate)": "low polyreactivity"},
      {"sequence": "QVQLVESGGGLVQAGGSLRLSCAASGIIFRYYAMGWYRQAPGKERELVASITARSGSTYYADSVKGRFTISRDNAKNTVYLQMNSLKPEDTAVYYCAKSGKPARYYYWGQGTQVTVSS", "polyreactivity (PSR sort gate)": "high polyreactivity"},
      {"sequence": "QVQLVESGGGLVQAGGSLRLSCAASGRIFDYYAMGWYRQAPGKERELVAVISRGGRTKYADSVKGRFTISRDNAKNTVYLQMNSLKPEDTAVFYCAAYPSYYGDSGLRYDYWGQGTQVTVSS", "polyreactivity (PSR sort gate)": "high polyreactivity"},
      {"sequence": "QVQLVESGGGLVQAGGSLRLSCAASGFTLRSNVMGWSRQAPGKERELVAGISQSGGRTFYADSVKGRFTISRDNAKNTVYLQMNSLKPEDTAVYYCAARRYAVEGSKNYYWGQGTQVTVSS", "polyreactivity (PSR sort gate)": "low polyreactivity"},
      {"sequence": "QVQLEESGVGLVQAGGSLRLICAASGFTFYSYAMGWYRQAPGKERELVASISWRGGSTYYADSVKGRFTISRDNAKNTVYLQMNSLKPVDTAVYYCAAQKRGSPVYRRDYWGQGTEVTVSS", "polyreactivity (PSR sort gate)": "high polyreactivity"},
      {"sequence": "QVQLVESGGGLVQAGGSLRLSCAASGRTFYPYVMGWYRQSPGKERELVASISWSGGSTYYADSVKGRFTFSRDNAKNSVYLQMNSLKPEDTAVYYCAALWPYGYWGQGTQVTVSS", "polyreactivity (PSR sort gate)": "low polyreactivity"},
      {"sequence": "QVQLVESGGGLVQAGGSLRLSCAASGIIFGYYAMGWYRQAPGKERELVAAISSIGGSTYYADSVKGRFTISRDNAKNTVYLQMNSLKPEDTAVYYCNAASSRWPEYDYWGQGTQVTVSS", "polyreactivity (PSR sort gate)": "high polyreactivity"}
    ]}
  ]
}
